Data as given in EP4782541A1 (Nanjing Probio Biotech Co., Ltd., dated 2026).

B1: BsAb-6 (bispecific antibody, human IgG1, lambda)
chain: EVQLVESGGGLVQPGGSLRLSCAASYFISRFYAVGWYRQAPGKQRELVARISSGGWTYYADSVKGRFTISIDNSKNTLYLQMNSLRAEDTAVYYCNARNLWGQGTLVTVSSGGGGSGGGGSGGGGSEVQLVESGGGLVQPGGSLRLSCAASYFISRFYAVGWYRQAPGKQRELVARISSGGWTYYADSVKGRFTISIDNSKNTLYLQMNSLRAEDTAVYYCNARNLWGQGTLVTVSSDKTHTCPPCPAPESTRGPSVFLFPPKPKDTLMISRTPEVTCVVVDVSHEDPEVKFNWYVDGVEVHNAKTKPREEQYNSTYRVVSVLTVLHQDWLNGKEYKCKVSNKALPAPIEKTISKAKGQPREPQVCTLPPSRDELTKNQVSLSCAVKGFYPSDIAVEWESNGQPENNYKTTPPVLDSDGSFFLVSKLTVDKSRWQQGNVFSCSVMHEALHNHYTQKSLSLSPGK
heavy: EVQLVESGGGLVQPGRSLRLSCAASGFTFNTYAMNWVRQAPGKGLEWVARIRSKYNNYATYYADSVKDRFTISRDDSKSIAYLQMNSLKTEDTAVYYCVRHGNFGNSYVSWFAYWGQGTLVTVSSASTKGPSVFPLAPSSKSTSGGTAALGCLVKDYFPEPVTVSWNSGALTSGVHTFPAVLQSSGLYSLSSVVTVPSSSLGTQTYICNVNHKPSNTKVDKKVEPKSCDKTHTCPPCPAPESTRGPSVFLFPPKPKDTLMISRTPEVTCVVVDVSHEDPEVKFNWYVDGVEVHNAKTKPREEQYNSTYRVVSVLTVLHQDWLNGKEYKCKVSNKALPAPIEKTISKAKGQPREPQVYTLPPCRDELTKNQVSLWCLVKGFYPSDIAVEWESNGQPENNYKTTPPVLDSDGSFFLYSKLTVDKSRWQQGNVFSCSVMHEALHNHYTQKSLSLSPGK
light: QTVVTQEPSLTVSPGGTVTLTCRSSTGAVTTSNYANWVQQKPGQAPRGLIGGTNKRAPGVPARFSGSLLGGKAALTLSGVQPEDEAEYFCALWYSNLWVFGGGTKLTVLGQPKAAPSVTLFPPSSEELQANKATLVCLISDFYPGAVTVAWKADSSPVKAGVETTTPSKQSNNKYAASSYLSLTPEQWKSHRSYSCQVTHEGSTVEKTVAPTECS
notes: also called BsAb-06
B2: BsAb-7 (bispecific antibody, human IgG1, lambda)
chain: QVQLVESGGGVVQPGGSLRLSCAASGFVLRVNTVSWYRQAPGKQRELVALITSESNEYYDDSVKGRFTISRDNAKNTIYLHMNSLKPEDTGVYFCNFITTWGQGTQVTVSSGGGGSGGGGSGGGGSQVQLVESGGGVVQPGGSLRLSCAASGFVLRVNTVSWYRQAPGKQRELVALITSESNEYYDDSVKGRFTISRDNAKNTIYLHMNSLKPEDTGVYFCNFITTWGQGTQVTVSSDKTHTCPPCPAPESTRGPSVFLFPPKPKDTLMISRTPEVTCVVVDVSHEDPEVKFNWYVDGVEVHNAKTKPREEQYNSTYRVVSVLTVLHQDWLNGKEYKCKVSNKALPAPIEKTISKAKGQPREPQVCTLPPSRDELTKNQVSLSCAVKGFYPSDIAVEWESNGQPENNYKTTPPVLDSDGSFFLVSKLTVDKSRWQQGNVFSCSVMHEALHNHYTQKSLSLSPGK
heavy: EVQLVESGGGLVQPGRSLRLSCAASGFTFNTYAMNWVRQAPGKGLEWVARIRSKYNNYATYYADSVKDRFTISRDDSKSIAYLQMNSLKTEDTAVYYCVRHGNFGNSYVSWFAYWGQGTLVTVSSASTKGPSVFPLAPSSKSTSGGTAALGCLVKDYFPEPVTVSWNSGALTSGVHTFPAVLQSSGLYSLSSVVTVPSSSLGTQTYICNVNHKPSNTKVDKKVEPKSCDKTHTCPPCPAPESTRGPSVFLFPPKPKDTLMISRTPEVTCVVVDVSHEDPEVKFNWYVDGVEVHNAKTKPREEQYNSTYRVVSVLTVLHQDWLNGKEYKCKVSNKALPAPIEKTISKAKGQPREPQVYTLPPCRDELTKNQVSLWCLVKGFYPSDIAVEWESNGQPENNYKTTPPVLDSDGSFFLYSKLTVDKSRWQQGNVFSCSVMHEALHNHYTQKSLSLSPGK
light: QTVVTQEPSLTVSPGGTVTLTCRSSTGAVTTSNYANWVQQKPGQAPRGLIGGTNKRAPGVPARFSGSLLGGKAALTLSGVQPEDEAEYFCALWYSNLWVFGGGTKLTVLGQPKAAPSVTLFPPSSEELQANKATLVCLISDFYPGAVTVAWKADSSPVKAGVETTTPSKQSNNKYAASSYLSLTPEQWKSHRSYSCQVTHEGSTVEKTVAPTECS
notes: also called BsAb-07
B3: BsAb-11 (bispecific antibody, human IgG1, lambda)
chain: QVQLVESGGGVVQPGGSLRLSCAASGFVLRVNTVSWYRQAPGKQRELVALITSESNEYYDDSVKGRFTISRDNAKNTIYLHMNSLKPEDTGVYFCNFITTWGQGTQVTVSSDKTHTCPPCPAPESTRGPSVFLFPPKPKDTLMISRTPEVTCVVVDVSHEDPEVKFNWYVDGVEVHNAKTKPREEQYNSTYRVVSVLTVLHQDWLNGKEYKCKVSNKALPAPIEKTISKAKGQPREPQVCTLPPSRDELTKNQVSLSCAVKGFYPSDIAVEWESNGQPENNYKTTPPVLDSDGSFFLVSKLTVDKSRWQQGNVFSCSVMHEALHNHYTQKSLSLSPGK
heavy: QVQLVESGGGVVQPGGSLRLSCAASGFVLRVNTVSWYRQAPGKQRELVALITSESNEYYDDSVKGRFTISRDNAKNTIYLHMNSLKPEDTGVYFCNFITTWGQGTQVTVSSGGGGSGGGGSGGGGSEVQLVESGGGLVQPGRSLRLSCAASGFTFNTYAMNWVRQAPGKGLEWVARIRSKYNNYATYYADSVKDRFTISRDDSKSIAYLQMNSLKTEDTAVYYCVRHGNFGNSYVSWFAYWGQGTLVTVSSASTKGPSVFPLAPSSKSTSGGTAALGCLVKDYFPEPVTVSWNSGALTSGVHTFPAVLQSSGLYSLSSVVTVPSSSLGTQTYICNVNHKPSNTKVDKKVEPKSCDKTHTCPPCPAPESTRGPSVFLFPPKPKDTLMISRTPEVTCVVVDVSHEDPEVKFNWYVDGVEVHNAKTKPREEQYNSTYRVVSVLTVLHQDWLNGKEYKCKVSNKALPAPIEKTISKAKGQPREPQVYTLPPCRDELTKNQVSLWCLVKGFYPSDIAVEWESNGQPENNYKTTPPVLDSDGSFFLYSKLTVDKSRWQQGNVFSCSVMHEALHNHYTQKSLSLSPGK
light: QTVVTQEPSLTVSPGGTVTLTCRSSTGAVTTSNYANWVQQKPGQAPRGLIGGTNKRAPGVPARFSGSLLGGKAALTLSGVQPEDEAEYFCALWYSNLWVFGGGTKLTVLGQPKAAPSVTLFPPSSEELQANKATLVCLISDFYPGAVTVAWKADSSPVKAGVETTTPSKQSNNKYAASSYLSLTPEQWKSHRSYSCQVTHEGSTVEKTVAPTECS
B4: BsAb-15 (bispecific antibody, human IgG1, lambda)
chain: EVQLVESGGGLVQPGGSLRLSCAASGRSFSSFQMGWFRQAPGKEREFVAASGWSGGPTYYWDSVIGRFTISTDNSKNTLYLQMNSLRAEDTAVYYCYEDRVLSGRHVRYWGQGTLVTVSSDKTHTCPPCPAPESTRGPSVFLFPPKPKDTLMISRTPEVTCVVVDVSHEDPEVKFNWYVDGVEVHNAKTKPREEQYNSTYRVVSVLTVLHQDWLNGKEYKCKVSNKALPAPIEKTISKAKGQPREPQVCTLPPSRDELTKNQVSLSCAVKGFYPSDIAVEWESNGQPENNYKTTPPVLDSDGSFFLVSKLTVDKSRWQQGNVFSCSVMHEALHNHYTQKSLSLSPGK
heavy: EVQLVESGGGLVQPGRSLRLSCAASGFTFNTYAMNWVRQAPGKGLEWVARIRSKYNNYATYYADSVKDRFTISRDDSKSIAYLQMNSLKTEDTAVYYCVRHGNFGNSYVSWFAYWGQGTLVTVSSASTKGPSVFPLAPSSKSTSGGTAALGCLVKDYFPEPVTVSWNSGALTSGVHTFPAVLQSSGLYSLSSVVTVPSSSLGTQTYICNVNHKPSNTKVDKKVEPKSCDKTHTCPPCPAPESTRGPSVFLFPPKPKDTLMISRTPEVTCVVVDVSHEDPEVKFNWYVDGVEVHNAKTKPREEQYNSTYRVVSVLTVLHQDWLNGKEYKCKVSNKALPAPIEKTISKAKGQPREPQVYTLPPCRDELTKNQVSLWCLVKGFYPSDIAVEWESNGQPENNYKTTPPVLDSDGSFFLYSKLTVDKSRWQQGNVFSCSVMHEALHNHYTQKSLSLSPGK
light: QTVVTQEPSLTVSPGGTVTLTCRSSTGAVTTSNYANWVQQKPGQAPRGLIGGTNKRAPGVPARFSGSLLGGKAALTLSGVQPEDEAEYFCALWYSNLWVFGGGTKLTVLGQPKAAPSVTLFPPSSEELQANKATLVCLISDFYPGAVTVAWKADSSPVKAGVETTTPSKQSNNKYAASSYLSLTPEQWKSHRSYSCQVTHEGSTVEKTVAPTECS

Each binder was assayed against T1, human CD3 (on Jurkat cells) (human, UniProt P07766 23-207; P09693 23-182; P04234 22-171) (assay: flow cytometry on Jurkat cells expressing human CD3).
T1 construct: whole, on cells
T1 sequence (P07766 23-207, chain 1 of 3): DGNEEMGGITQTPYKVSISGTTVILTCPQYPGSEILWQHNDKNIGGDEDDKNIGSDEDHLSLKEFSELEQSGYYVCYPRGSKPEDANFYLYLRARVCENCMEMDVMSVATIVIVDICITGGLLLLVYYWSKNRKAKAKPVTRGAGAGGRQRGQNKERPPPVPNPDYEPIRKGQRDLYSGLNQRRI
T1 sequence (P09693 23-182, chain 2 of 3): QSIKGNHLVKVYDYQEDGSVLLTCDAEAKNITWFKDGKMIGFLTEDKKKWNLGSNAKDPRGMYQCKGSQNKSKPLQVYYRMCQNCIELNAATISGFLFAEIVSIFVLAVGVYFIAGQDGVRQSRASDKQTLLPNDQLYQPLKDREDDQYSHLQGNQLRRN
T1 sequence (P04234 22-171, chain 3 of 3): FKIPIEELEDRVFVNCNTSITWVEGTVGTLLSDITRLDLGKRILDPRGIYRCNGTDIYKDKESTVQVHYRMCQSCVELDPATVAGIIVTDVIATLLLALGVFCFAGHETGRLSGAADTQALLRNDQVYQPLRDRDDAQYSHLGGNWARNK

Compared with B1, B2 is 2.2-fold lower in EC50: 1180 pM for the first, 526 pM for the second. The second is the more potent here.

Going from B3 to B4, the EC50 falls from 4000 pM to 743 pM (5.4-fold). The second is the more potent here.
